Publication PMC10257657 (Nature Communications, 2023)

Biological target: the molecule itself
Assay: AUC; analytical ultracentrifugation of VibO (Supplementary Fig. 24b); conditions not shown

B1: VibO, NADPH/FAD-dependent monooxygenase (oxepinone-forming enzyme) of Boreostereum vibrans (enzyme)
chain: MAAVENFEGYVEPELFERPGTSLPNKLGVMPQLTWPNVLNGTNCEKPAVPNYKPPSKVDVIIIGAGPVGLTTAACLLRQGITVRILDRSPHPLPVGRADGLQPRSMEVFDLLGLGEEVYHVGIRVEHTTVYKDGKQHIFAESHQAPGNEAHYTGLHACTQTEVEHLLIRDLIRHDILVERPCTATSYTFDEEADASVTHPITVNITNEATGAEEVVTARFLVGSDGAHSMIRKSLPIEFPGVKTDLHWGIVDAVINSDFPHRWTFGTVLNSEYGGCLIIPRERNMVRLYVQLRAEPGKAFDHSKWGPEEILVILNKVFAPYTLSYAEPVDWYTILTINERVATSFTYKDRIFLAGDSCHVHSAKGAFGMNTGVMDAHNLAWKLAMLCRGIAKPSLLASYDVERRENALRAVATSARYLRFVGNCTFQAIDGSGEVDKEADELVVPPGEDKDVFYFKKFVGQVGRFLIGLDVDYAENALNKLSPAVSRARAGYRASNPRVALSRSHSGRLYHSFGHLGQFTLLVFASNMGGALNAKLHALDSYLAGPSSFYHAYGGADTFKIVVVVRATPSQADQRVKTFPFLSKAGHTVYDDQLPLSHFGGDAHALYGVSHEEGAIVVVRPDSWIGTSSTISDARSLESYFDGFLFKSTEGSY
- stoichiometry N: 2
